Laboratory results taken from patent publication US20180118814A1.

Columns and labels:
[1] = molecular target: HBsAg-L antigen (Beacle, BCL-AG-001) (hepatitis B virus); assay: ELISA, plate coated with 1 µg/mL HBsAg-L, anti-human kappa-HRP detection, cell culture supernatant
[2] = molecular target: HBsAg-L antigen (Beacle, BCL-AG-001) (hepatitis B virus); assay: ELISA, plate coated with 1 µg/mL HBsAg-L, anti-human kappa-HRP detection, purified protein

EC50 [1]: 0.057 nM
EC50 [2]: 0.061 nM
B1: HBV24G (antibody, human IgG1, kappa, V domains shown)
VH: QVQLVQSGAEVKAPGASVKVSCKASGYTFTSAWMNWVRQAPGQGLEWMGRIYPSGGSTSYAQKFQGRVTMTADKSTSTVYMELSSLRSEDTAVYYCAREYRVARWGQGTLVTVSS
VL: DIVMTQTPLSLSVTPGQPASISCKSSQSLLYSNGKTYLNWLLQKPGQPPQRLIYLVSNRDSGVPDRFSGSGSGTDFTLKISRVEAEDVGVYYCVQGTHFPQTFGGGTKVEIKR
